Measured values taken from the supplement of paper PMC9112550, “Optimization of the antimicrobial peptide Bac7 by deep mutational scanning” (BMC Biology, 2022).

Test system: Escherichia coli TOP10
Assay: shrunken log2 fold change of peptide-encoding DNA abundance (4.5 h post-induction vs induction); higher = less antimicrobial activity (less host growth inhibition)
Conditions: time post-induction: 4.5 h; library: site-saturation at positions 5, 18, 19, 20
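Also: peptides expressed intracellularly from a pBAD plasmid library in pooled LB shake-flask culture, induced with 0.3% L-arabinose, DNA abundance read by NGS, three biological replicates, DESeq2 with apeglm shrinkage.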

RRIRKRPPRLPRPRPRPKQMPRP
shrunken log2 fold change: 0.471

RRIRGRPPRLPRPRPRPYDKPRP
shrunken log2 fold change: -0.147

RRIRGRPPRLPRPRPRPCPEPRP
shrunken log2 fold change: -0.0446

RRIRGRPPRLPRPRPRPRSFPRP
shrunken log2 fold change: -0.0397

RRIRLRPPRLPRPRPRPFNDPRP
shrunken log2 fold change: 0.0825

RRIRQRPPRLPRPRPRPDLKPRP
shrunken log2 fold change: -0.0178

RRIRRRPPRLPRPRPRPENYPRP
shrunken log2 fold change: 0.0652

RRIRARPPRLPRPRPRPQIYPRP
shrunken log2 fold change: -0.354

RRIRDRPPRLPRPRPRPSWYPRP
shrunken log2 fold change: 0.0397

RRIRMRPPRLPRPRPRPGDWPRP
shrunken log2 fold change: 1.33

RRIRARPPRLPRPRPRPVASPRP
shrunken log2 fold change: 0.595

RRIRDRPPRLPRPRPRPAKRPRP
shrunken log2 fold change: -0.161

RRIRRRPPRLPRPRPRPHASPRP
shrunken log2 fold change: 0.201

RRIRTRPPRLPRPRPRPKVRPRP
shrunken log2 fold change: 0.0294

RRIRGRPPRLPRPRPRPLYSPRP
shrunken log2 fold change: 0.225

RRIRNRPPRLPRPRPRPLWMPRP
shrunken log2 fold change: -0.587

RRIRCRPPRLPRPRPRPWELPRP
shrunken log2 fold change: 0.268

RRIRVRPPRLPRPRPRPFRCPRP
shrunken log2 fold change: -0.123

RRIRFRPPRLPRPRPRPSSDPRP
shrunken log2 fold change: -0.286

RRIRDRPPRLPRPRPRPIGGPRP
shrunken log2 fold change: 0.0266

RRIRGRPPRLPRPRPRPKWTPRP
shrunken log2 fold change: 0.392

RRIRGRPPRLPRPRPRPPQDPRP
shrunken log2 fold change: 0.781

RRIRLRPPRLPRPRPRPHFYPRP
shrunken log2 fold change: -0.303

RRIRERPPRLPRPRPRPEEFPRP
shrunken log2 fold change: -0.0217

RRIRARPPRLPRPRPRPYTYPRP
shrunken log2 fold change: -0.458

RRIRKRPPRLPRPRPRPNINPRP
shrunken log2 fold change: -0.169

RRIRARPPRLPRPRPRPIHTPRP
shrunken log2 fold change: 0.0197

RRIRHRPPRLPRPRPRPFLLPRP
shrunken log2 fold change: -0.502

RRIRNRPPRLPRPRPRPGKNPRP
shrunken log2 fold change: 0.0906

RRIRNRPPRLPRPRPRPIHDPRP
shrunken log2 fold change: 0.177

RRIRPRPPRLPRPRPRPYGWPRP
shrunken log2 fold change: -0.248

RRIRLRPPRLPRPRPRPVPMPRP
shrunken log2 fold change: -0.0969

RRIRPRPPRLPRPRPRPEGHPRP
shrunken log2 fold change: -0.16

RRIRPRPPRLPRPRPRPHETPRP
shrunken log2 fold change: -0.164

RRIRSRPPRLPRPRPRPEPDPRP
shrunken log2 fold change: 0.953

RRIRRRPPRLPRPRPRPHIGPRP
shrunken log2 fold change: -0.155

RRIRHRPPRLPRPRPRPIAPPRP
shrunken log2 fold change: 0.0449

RRIRARPPRLPRPRPRPLKEPRP
shrunken log2 fold change: 0.218

RRIRFRPPRLPRPRPRPDIGPRP
shrunken log2 fold change: -0.0309

RRIRNRPPRLPRPRPRPADVPRP
shrunken log2 fold change: -0.289

RRIRERPPRLPRPRPRPPWYPRP
shrunken log2 fold change: -0.227

RRIRFRPPRLPRPRPRPENPPRP
shrunken log2 fold change: -0.0301

RRIRYRPPRLPRPRPRPSGLPRP
shrunken log2 fold change: -0.078

RRIRLRPPRLPRPRPRPYMMPRP
shrunken log2 fold change: -0.594

RRIRYRPPRLPRPRPRPEWYPRP
shrunken log2 fold change: -0.00146

RRIRGRPPRLPRPRPRPTCTPRP
shrunken log2 fold change: 0.975

RRIRSRPPRLPRPRPRPNAWPRP
shrunken log2 fold change: -0.0228

RRIRSRPPRLPRPRPRPLIFPRP
shrunken log2 fold change: -0.403

RRIRTRPPRLPRPRPRPDIYPRP
shrunken log2 fold change: -0.138

RRIRARPPRLPRPRPRPLPSPRP
shrunken log2 fold change: 0.353

RRIRSRPPRLPRPRPRPEYKPRP
shrunken log2 fold change: 0.0361

RRIRSRPPRLPRPRPRPFIWPRP
shrunken log2 fold change: -0.297

RRIRSRPPRLPRPRPRPRFKPRP
shrunken log2 fold change: 0.0925

RRIRYRPPRLPRPRPRPPQFPRP
shrunken log2 fold change: -0.213

RRIRKRPPRLPRPRPRPVAVPRP
shrunken log2 fold change: 0.138

RRIRVRPPRLPRPRPRPIVGPRP
shrunken log2 fold change: 0.0676

RRIRSRPPRLPRPRPRPHKGPRP
shrunken log2 fold change: -0.22

RRIRNRPPRLPRPRPRPSRSPRP
shrunken log2 fold change: -0.076

RRIRTRPPRLPRPRPRPRQEPRP
shrunken log2 fold change: 0.0565

RRIRQRPPRLPRPRPRPHWVPRP
shrunken log2 fold change: 0.0288

RRIRGRPPRLPRPRPRPNMMPRP
shrunken log2 fold change: 0.0511

RRIRIRPPRLPRPRPRPVCVPRP
shrunken log2 fold change: -0.279

RRIRARPPRLPRPRPRPVDKPRP
shrunken log2 fold change: 0.363

RRIRWRPPRLPRPRPRPYWDPRP
shrunken log2 fold change: -0.415

RRIRLRPPRLPRPRPRPHGGPRP
shrunken log2 fold change: -0.234

RRIRMRPPRLPRPRPRPYQAPRP
shrunken log2 fold change: 2.21

RRIRQRPPRLPRPRPRPKCCPRP
shrunken log2 fold change: -0.113

RRIRTRPPRLPRPRPRPWDWPRP
shrunken log2 fold change: 0.00763

RRIRQRPPRLPRPRPRPQDHPRP
shrunken log2 fold change: -0.408

RRIRRRPPRLPRPRPRPHDSPRP
shrunken log2 fold change: -0.0547

RRIRCRPPRLPRPRPRPYTGPRP
shrunken log2 fold change: -0.554

RRIRVRPPRLPRPRPRPNASPRP
shrunken log2 fold change: 0.147

RRIRSRPPRLPRPRPRPCYEPRP
shrunken log2 fold change: -0.167

RRIRVRPPRLPRPRPRPATTPRP
shrunken log2 fold change: 0.0611

RRIRSRPPRLPRPRPRPVTIPRP
shrunken log2 fold change: -0.373

RRIRARPPRLPRPRPRPWKCPRP
shrunken log2 fold change: 0.0662

RRIRLRPPRLPRPRPRPIGNPRP
shrunken log2 fold change: 0.0592

RRIRQRPPRLPRPRPRPYTYPRP
shrunken log2 fold change: -0.157

RRIRRRPPRLPRPRPRPYNYPRP
shrunken log2 fold change: -0.501

RRIRCRPPRLPRPRPRPIGSPRP
shrunken log2 fold change: -0.139

RRIRDRPPRLPRPRPRPKQGPRP
shrunken log2 fold change: 0.0662

RRIRRRPPRLPRPRPRPVQFPRP
shrunken log2 fold change: 0.0855

RRIRRRPPRLPRPRPRPFSDPRP
shrunken log2 fold change: -0.311

RRIRARPPRLPRPRPRPFKTPRP
shrunken log2 fold change: 0.0511

RRIRPRPPRLPRPRPRPGYDPRP
shrunken log2 fold change: -0.0887

RRIRLRPPRLPRPRPRPAIQPRP
shrunken log2 fold change: 0.987

RRIRFRPPRLPRPRPRPNKIPRP
shrunken log2 fold change: -0.538

RRIRTRPPRLPRPRPRPCWHPRP
shrunken log2 fold change: -0.119

RRIRYRPPRLPRPRPRPHPRPRP
shrunken log2 fold change: -0.392

RRIRCRPPRLPRPRPRPVYRPRP
shrunken log2 fold change: -0.445

RRIRRRPPRLPRPRPRPCDGPRP
shrunken log2 fold change: 0.0965

RRIRMRPPRLPRPRPRPRRRPRP
shrunken log2 fold change: 1.53

RRIRIRPPRLPRPRPRPFEHPRP
shrunken log2 fold change: -0.321

RRIRMRPPRLPRPRPRPMAAPRP
shrunken log2 fold change: 0.117

RRIRERPPRLPRPRPRPFSAPRP
shrunken log2 fold change: -0.161

RRIRRRPPRLPRPRPRPTGLPRP
shrunken log2 fold change: 0.0398

RRIRGRPPRLPRPRPRPKNLPRP
shrunken log2 fold change: 0.121

RRIRLRPPRLPRPRPRPDMEPRP
shrunken log2 fold change: 0.0384

RRIRGRPPRLPRPRPRPWWPPRP
shrunken log2 fold change: 0.404

RRIRPRPPRLPRPRPRPRDDPRP
shrunken log2 fold change: 0.23

RRIRYRPPRLPRPRPRPPFCPRP
shrunken log2 fold change: -0.332

RRIRIRPPRLPRPRPRPPAAPRP
shrunken log2 fold change: 0.458

RRIRYRPPRLPRPRPRPVDLPRP
shrunken log2 fold change: 0.0483

RRIRRRPPRLPRPRPRPGDTPRP
shrunken log2 fold change: 0.0234

RRIRCRPPRLPRPRPRPFQTPRP
shrunken log2 fold change: -0.153

RRIRLRPPRLPRPRPRPQIWPRP
shrunken log2 fold change: -0.166

RRIRRRPPRLPRPRPRPHYHPRP
shrunken log2 fold change: -0.35

RRIRFRPPRLPRPRPRPDWKPRP
shrunken log2 fold change: 0.0379

RRIRTRPPRLPRPRPRPATRPRP
shrunken log2 fold change: 0.0996

RRIRHRPPRLPRPRPRPSYHPRP
shrunken log2 fold change: -1.11

RRIRLRPPRLPRPRPRPFKAPRP
shrunken log2 fold change: 0.181

RRIRERPPRLPRPRPRPMCYPRP
shrunken log2 fold change: -0.403

RRIRFRPPRLPRPRPRPLYWPRP
shrunken log2 fold change: -0.319

RRIRSRPPRLPRPRPRPKLSPRP
shrunken log2 fold change: 0.352

RRIRMRPPRLPRPRPRPDCVPRP
shrunken log2 fold change: 1.71

RRIRHRPPRLPRPRPRPMGCPRP
shrunken log2 fold change: -0.000946

RRIRTRPPRLPRPRPRPLGNPRP
shrunken log2 fold change: -0.159

RRIRLRPPRLPRPRPRPYIQPRP
shrunken log2 fold change: -0.337

RRIRWRPPRLPRPRPRPCRRPRP
shrunken log2 fold change: 0.0574

RRIRFRPPRLPRPRPRPASLPRP
shrunken log2 fold change: -0.227

RRIRTRPPRLPRPRPRPLDRPRP
shrunken log2 fold change: 0.0153

RRIRVRPPRLPRPRPRPPNTPRP
shrunken log2 fold change: -0.0576

RRIRNRPPRLPRPRPRPNNFPRP
shrunken log2 fold change: -0.447

RRIRERPPRLPRPRPRPYSFPRP
shrunken log2 fold change: -0.0431

RRIRLRPPRLPRPRPRPQFSPRP
shrunken log2 fold change: -0.907
